Source: US7029857B1, “Processes for obtaining compounds employing SNORF72 receptors” (H. Lundbeck A/S, priority 1999, dated 2006)
Where “and” joins values, the source holds several entries; their conditions need not be identical. Equal values may be shown once. Blank lines part the entries; values can stand above or below the molecule they belong to. No end group written: not given here.

How the values were obtained:
SNORF72 = biological target: T1, SNORF72 (Homo sapiens, UniProt Q9GZQ4, A395T); assay: Intracellular Ca2+ release (FLIPR) in SNORF72-transfected COS-7 cells; assay type: cell-based; conditions: stimulation of Ca2+ release, SNORF72-transfected COS-7 cells, n = 2-7 (Table 1A)
T1 construct: expressed in transfected cells; host or cells: COS-7 (transient, DEAE-dextran)
Protocol: (§1) A typical protocol for the DEAE-dextran method as applied to COS-7 and HEK293 cells is described as follows. Cells to be used for transfection are split 24 hours prior to the transfection to provide flasks which are 70–80% confluent at the time of transfection. Briefly, 8 μg of receptor DNA plus 8 μg of any additional DNA needed (e.g. Gα protein expression vector, reporter construct, antibiotic resistance marker, mock vector, etc.) are added to 9 ml of complete DMEM plus DEAE-dextran mixture (10 mg/ml in PBS). Cells plated into a T225 flask (sub-confluent) are washed once with PBS and the DNA mixture is added to each flask. The cells are allowed to incubate for 30 minutes at 37° C., 5% CO2. Following the incubation, 36 ml of complete DMEM with 80 μM chloroquine is added to each flask and allowed to incubate an additional 3 hours. The medium is then aspirated and 24 ml of complete medium containing 10% DMSO for exactly 2 minutes and then aspirated. The cells are then washed 2 times with PBS and 30 ml of complete DMEM added to each flask. The cells are then allowed to incubate over night. The next day the cells are harvested by trypsinization and reseeded into 96 well plates.
(§2) Cells expressing the receptor of interest are plated into clear, flat-bottom, black-walled 96-well plates (Costar) at a density of 80,000–150,000 cells per well and allowed to incubate for 48 hr at 5% CO2, 37° C. The growth medium is aspirated and 100 μL of loading medium containing Fluo-3 dye is added to each well. The loading medium contains: 20 mM HEPES (Sigma), 0.1% BSA (Sigma), dye/pluronic acid mixture (e.g. 1 mM Fluo-3/AM (Molecular Probes) and 10% pluronic acid (Molecular Probes) mixed immediately before use), and 2.5 mM probenecid (Sigma)(prepared fresh). The cells are allowed to incubate for about 1 hour at 5% CO2, 37° C.
(§3) The compounds of interest are diluted in wash buffer (Hank's BSS (without phenol red), 20 mM HEPES, 2.5 mM probenecid) to a 4× final concentration and aliquoted into a clear v-bottom plate (Nunc). Following the dye incubation, the cells are washed 4 times to remove excess dye using a Denley plate washer. 100 μL final volume of wash buffer is then added to each cell well. Compounds are added to the cell plates and responses are measured using the FLIPR™ instrument. The data are then collected and analyzed using the FLIPR™ software and Graphpad Prism.
(§4) COS-7 cells were transiently transfected with SNORF62, SNORF72 or vector DNA (mock) as described in Materials and Methods.

SNORF62 [1] = biological target: T2, SNORF62 (Homo sapiens, UniProt Q9HB89); assay: Displacement of [125I]rat NMU-23 binding in SNORF62-transfected COS-7 membranes; set-up: The SNORF62 cDNA codes for a protein of 426 amino acids; expressed in transfected cells; host or cells: COS-7 (transient, DEAE-dextran); conditions: binding affinity, SNORF62-transfected COS-7 cells (Table 1A); read-out: SNORF62 Avg Ki
T2 sequence (Q9HB89 1-426): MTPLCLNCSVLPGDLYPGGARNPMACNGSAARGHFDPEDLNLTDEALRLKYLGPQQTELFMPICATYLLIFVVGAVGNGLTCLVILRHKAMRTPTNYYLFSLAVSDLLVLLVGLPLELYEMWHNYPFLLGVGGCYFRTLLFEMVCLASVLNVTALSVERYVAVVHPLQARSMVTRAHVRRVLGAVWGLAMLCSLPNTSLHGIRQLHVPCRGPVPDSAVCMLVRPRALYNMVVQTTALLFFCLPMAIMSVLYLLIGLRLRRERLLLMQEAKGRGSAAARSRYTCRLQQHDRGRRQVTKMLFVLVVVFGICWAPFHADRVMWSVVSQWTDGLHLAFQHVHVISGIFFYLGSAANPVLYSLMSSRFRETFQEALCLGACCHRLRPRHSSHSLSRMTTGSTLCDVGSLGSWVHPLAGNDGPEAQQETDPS
Protocol: The specifics of preparing such cell membranes may in some cases be determined by the nature of the ensuing assay but typically involve harvesting whole cells and disrupting the cell pellet by sonication in ice cold buffer (e.g. 20 mM Tris HCl, mM EDTA, pH 7.4 at 4° C.). The resulting crude cell lysate is cleared of cell debris by low speed centrifugation at 200×g for 5 min at 4° C. The cleared supernatant is then centrifuged at 40,000×g for 20 min at 4° C., and the resulting membrane pellet is washed by suspending in ice cold buffer and repeating the high speed centrifugation step. The final washed membrane pellet is resuspended in assay buffer. Protein concentrations are determined by the method of Bradford (1976) using bovine serum albumin as a standard. The membranes may be used immediately or frozen for later use.
(§5) Radioligand binding assays were performed by diluting membranes prepared from cells expressing the receptor in 50 mM Tris buffer (pH=7.4 at 0° C.) containing 0.1% bovine serum albumin (Sigma), aprotinin (0.005 mg/ml, Boehringer Mannheim) and bestatin (0.1 mM, Sigma) as protease inhibitors. The final protein concentration in the assay was 12–40 μg/ml. […] The bound ligand was separated from free by filtration through GF/B filters presoaked in 0.5% polyethyleneimine (PEI), using a Tomtec (Wallac) vacuum filtration device. After addition of Ready Safe (Beckman) scintillation fluid, bound radioactivity was quantitated using a Trilux (Wallac) scintillation counter (approximately 40% counting efficiency of bound counts). Data was fit to non-linear curves using GraphPad Prism.
In this manner, agonist or antagonist compounds that bind to the receptor may be identified as they inhibit the binding of the labeled ligand to the membrane protein of cells expressing the said receptor. Non-specific binding was defined as the amount of radioactivity remaining after incubation of membrane protein in the presence of 100 nM of the unlabeled peptide corresponding to the radioligand used. In equilibrium saturation binding assays membrane preparations or intact cells transfected with the receptor are incubated in the presence of increasing concentrations of the labeled compound to determine the binding affinity of the labeled ligand.

SNORF62 [2] = biological target: T2, SNORF62; assay: Calcium-activated Cl- currents in Xenopus oocytes injected with SNORF62 mRNA; assay type: cell-based; set-up: from linearized plasmids or PCR products containing the complete coding region of the gene; expressed in transfected cells; host or cells: Xenopus laevis oocytes injected with in vitro transcribed SNORF62 mRNA; conditions: 1 μM peptide, n=3
Protocol: Heterologous expression of GPCRs in Xenopus oocytes has been widely used to determine the identity of signaling pathways activated by agonist stimulation (Gundersen et al., 1983; Takahashi et al., 1987). Activation of the phospholipase C (PLC) pathway is assayed by applying a test compound in ND96 solution to oocytes previously injected with mRNA for the human SNORF62 and observing inward currents at a holding potential of approximately −80 mV. The appearance of currents that reverse at −25 mV and display other properties of the Ca^++-activated Cl^− channel is indicative of receptor-acitivation of PLC and release of IP3 and intracellular Ca^++.
In the present invention, oocytes were harvested from Xenopus laevis and injected with mRNA transcripts as previously described (Quick and Lester, 1994; Smith et al., 1997). SNORF62 mRNA transcript was synthesized using the T7 polymerase (“Message Machine”, Ambion) from linearized plasmids or PCR products containing the complete coding region of the gene. Oocytes were injected with 1–50 ng synthetic receptor RNA and incubated for 3–8 days at 17° C. Currents were recorded under dual electrode voltage clamp (Axon Instruments Inc.) with 3 M KCl-filled glass microelectrodes having resistances of 1–2 Mohm. Unless otherwise specified, oocytes were voltage clamped at a holding potential of −80 mV. […]

SNORF62 [3] = biological target: T2, SNORF62; assay: Intracellular Ca2+ release (FLIPR) in SNORF62-transfected COS-7 cells; assay type: cell-based; set-up: The SNORF62 cDNA codes for a protein of 426 amino acids; expressed in transfected cells; host or cells: COS-7 (transient, DEAE-dextran); conditions: stimulation of Ca2+ release, SNORF62-transfected COS-7 cells, n = 2-7 (Table 1A)
Protocol: as §1, §2, §3, §4

human SNORF62 receptor [4] = biological target: T3, human SNORF62 receptor (human, UniProt Q9HB89 1-426); assay: displacement of [125I]rat NMU-23 (0.05-0.1 nM), membranes of SNORF62-transfected COS-7 cells, n=2
T3 construct: also called hSNORF62; NMU receptor
T3 sequence: T2 sequence (Q9HB89 1-426)
Protocol: as §5, with “µg/ml.” for “μg/ml.”

human SNORF62 receptor [5] = biological target: T3, human SNORF62 receptor; assay: cell-based or functional assay
human SNORF62 receptor [6] = biological target: T3, human SNORF62 receptor; assay: displacement of [125I]rat NMU-23, membranes of SNORF62-transfected COS-7 cells
Protocol: as §5, with “µg/ml.” for “μg/ml.”

human SNORF72 receptor [7] = biological target: T4, human SNORF72 receptor (human, UniProt Q9GZQ4 1-415); assay: cell-based or functional assay
human SNORF62 receptor [8] = biological target: T3, human SNORF62 receptor; assay: cell-based or functional assay; remark: listed apart in the source
human SNORF72 receptor [9] = biological target: T4, human SNORF72 receptor; assay: displacement of [125I]rat NMU-23 (0.05-0.1 nM), membranes of SNORF72-transfected COS-7 cells, n=2
Protocol: as §5, with “µg/ml.” for “μg/ml.”

human SNORF72 receptor [10] = biological target: T4, human SNORF72 receptor; assay: cell-based or functional assay; remark: listed apart in the source
human SNORF62 receptor [11] = biological target: T3, human SNORF62 receptor; assay: cell-based or functional assay; remark: listed apart in the source
human SNORF72 receptor [12] = biological target: T4, human SNORF72 receptor; assay: displacement of [125I]rat NMU-23, membranes of SNORF72-transfected COS-7 cells
Protocol: as §5, with “µg/ml.” for “μg/ml.”

human SNORF62 receptor [13] = biological target: T3, human SNORF62 receptor; assay: saturation radioligand binding, membranes of SNORF62-transfected COS-7 cells, n=2
Protocol: as §5, with “µg/ml.” for “μg/ml.”

human SNORF72 receptor [14] = biological target: T4, human SNORF72 receptor; assay: saturation radioligand binding, membranes of SNORF72-transfected COS-7 cells, n=2
Protocol: as §5, with “µg/ml.” for “μg/ml.”

T4 sequence (Q9GZQ4 other isoform, or with tags, fused parts or gaps): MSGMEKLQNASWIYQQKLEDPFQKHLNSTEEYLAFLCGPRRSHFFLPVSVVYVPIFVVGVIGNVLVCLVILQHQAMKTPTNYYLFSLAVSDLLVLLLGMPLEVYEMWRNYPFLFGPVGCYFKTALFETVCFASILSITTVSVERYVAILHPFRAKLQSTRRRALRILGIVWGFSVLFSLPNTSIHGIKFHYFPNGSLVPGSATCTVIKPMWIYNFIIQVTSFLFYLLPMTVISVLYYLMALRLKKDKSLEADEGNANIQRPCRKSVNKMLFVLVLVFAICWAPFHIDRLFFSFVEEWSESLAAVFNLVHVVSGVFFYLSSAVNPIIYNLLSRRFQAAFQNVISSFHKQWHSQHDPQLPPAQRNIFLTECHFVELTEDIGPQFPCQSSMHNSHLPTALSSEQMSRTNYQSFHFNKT
T1 sequence (Q9GZQ4 whole entry A395T): as the sequence (Q9GZQ4 other isoform, or with tags, fused parts or gaps) above

Molecule: CC[C@H](C)[C@H](NC(=O)[C@@H]1CCCN1C(=O)CNC(=O)[C@H](CCC(N)=O)NC(=O)[C@H](Cc1ccccc1)NC(=O)[C@H](CCC(=O)O)NC(=O)[C@H](CCC(=O)O)NC(=O)[C@H](CC(=O)O)NC(=O)[C@@H](NC(=O)[C@H](CCCCN)NC(=O)[C@@H](N)Cc1ccccc1)C(C)C)C(=O)N[C@H](C(=O)N[C@@H](CO)C(=O)N[C@@H](CCC(N)=O)C(=O)N[C@@H](CC(N)=O)C(=O)N[C@@H](CCCNC(=N)N)C(=O)N[C@@H](CCCNC(=N)N)C(=O)N[C@@H](Cc1ccc(O)cc1)C(=O)N[C@@H](Cc1ccccc1)C(=O)N[C@@H](CC(C)C)C(=O)N[C@@H](Cc1ccccc1)C(=O)N[C@@H](CCCNC(=N)N)C(=O)N1CCC[C@H]1C(=O)N[C@@H](CCCNC(=N)N)C(=O)N[C@@H](CC(N)=O)C(N)=O)C(C)C [porcine NMU-25, FKVDEEFQGPIVSQNRRYFLFRPRN—NH2]
EC50 (SNORF72): 3 ± 0.7 nM
Ki (SNORF62 [1]): 1.1 ± 0.2 nM
current amplitude (SNORF62 [2]): 2150±330 nA
EC50 (SNORF62 [3]): 5.2 ± 0.8 nM

pKi (human SNORF62 receptor [4]): 9.4
AVG EC50 (nM), stimulation of Ca++ release in SNORF62-transfected COS-7 cells (FLIPR) (human SNORF62 receptor [5]): 2.1 nM
Ki (human SNORF62 receptor [6]): 0.5 nM
Avg EC50 (nM), stimulation of Ca2+ release in SNORF72-transfected COS-7 cells (human SNORF72 receptor [7]): 5 nM
Avg EC50 (nM), stimulation of Ca2+ release in SNORF62-transfected COS-7 cells (human SNORF62 receptor [8]): 2.1 nM
pKi (human SNORF72 receptor [9]): 9
EC50, Ca2+ release in SNORF72-transfected COS-7 cells (human SNORF72 receptor [10]): 1.7 nM and 5.1 nM
EC50, release of IP second messengers in SNORF62-transfected COS-7 cells (human SNORF62 receptor [11]): 0.23 nM
Ki (human SNORF72 receptor [12]): 0.5 nM
B1: rat NMU-23 (peptide)
peptide: YKVNEYQGPVAPSGGFFLFRPRN-NH2
notes: also called rat neuromedin U-23

Kd (human SNORF62 receptor [13]): 0.61 nM and 0.72 nM
Kd (human SNORF72 receptor [14]): 0.81 nM and 0.96 nM
B2: [125I]rat NMU-23 (peptide)
peptide: YKVNEYQGPVAPSGGFFLFRPRN-NH2
modifications: also: 125I-labelled, residue not given here
notes: Radioligand from NEN, specific activity 2200 Ci/mmole; also called radioiodinated rat NMU-23

pKi (human SNORF62 receptor [4]): 8.7
AVG EC50 (nM), stimulation of Ca++ release in SNORF62-transfected COS-7 cells (FLIPR) (human SNORF62 receptor [5]): 4 nM
Ki (human SNORF62 receptor [6]): 2 nM
Avg EC50 (nM), stimulation of Ca2+ release in SNORF72-transfected COS-7 cells (human SNORF72 receptor [7]): 2.4 nM
Avg EC50 (nM), stimulation of Ca2+ release in SNORF62-transfected COS-7 cells (human SNORF62 receptor [8]): 4 nM
pKi (human SNORF72 receptor [9]): 8.5
EC50, release of IP second messengers in SNORF62-transfected COS-7 cells (human SNORF62 receptor [11]): 0.25 nM
release of IP second messengers, fold above basal, in SNORF62-transfected COS-7 cells (human SNORF62 receptor [11]): ~2 fold
B3: human NMU-25 (peptide)
peptide: FRVDEEFQSPFASQSRGYFLFRPRN-NH2
notes: also called human neuromedin U-25
